Consider 4 substances from US20030008808.

The data set concerns 30S ribosomal subunit (activated, mRNA-programmed; ribonucleoprotein). As to the kind of experiment: filter. Particulars: CMN buffer.

human ASLLys3(SUU): the Kd – broadly, the constant that tells how readily two partners part at equilibrium – (s2U at position 34, poly(A)-programmed, also bound poly(AG)-programmed, 20 mM MgCl2) was found to be 176 nM.

native E. coli tRNALys(SUU) registered a Kd (native modifications incl. mnm5s2U34, poly(A)-programmed, 20 mM MgCl2, 100 mM NH4Cl, pH 7.2, 37 C then ice) of 70 nM.

In the case of native yeast tRNAPhe(GmAA), the Kd (native modifications incl. Gm34, poly(U)-programmed, 20 mM MgCl2) was determined as 103 nM. This lies in the sub-micromolar range.

yeast ASLPhe(GAA) came in with a Kd (poly(U)-programmed, 20 mM MgCl2) of 136 nM. In other words, the sub-micromolar range.
